# Changes are numbered by the printed parent chain.
# T1: human GPVI on the platelet surface (human, UniProt Q9HCN6 21-339)
# T1 sequence (looked up): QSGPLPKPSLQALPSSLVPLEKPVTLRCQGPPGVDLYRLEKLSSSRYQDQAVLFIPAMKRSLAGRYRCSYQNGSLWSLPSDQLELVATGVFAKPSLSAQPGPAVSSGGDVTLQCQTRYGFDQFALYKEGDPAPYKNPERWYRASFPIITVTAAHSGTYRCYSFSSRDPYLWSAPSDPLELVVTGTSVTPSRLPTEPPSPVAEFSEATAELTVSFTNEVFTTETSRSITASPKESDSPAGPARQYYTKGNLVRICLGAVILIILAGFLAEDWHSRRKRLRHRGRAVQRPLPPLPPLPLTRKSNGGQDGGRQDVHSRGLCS
# B1: non-humanized Fab construct based on the original clone 390 without the His-tag (Fab, V domains shown)
# VH: QVQLKESGPGLVAPSQSLSITCTVSGFSLTGYGVNWVRQPPGKGLEWLGMIWGDGSTDYNSTLKSRLSISKDNSKSQVFLKMNSLQTDDTARYYCARDLPMDYWGQGTSVTVSS
# VL: DIQMTQSPSSLSASLGGKVTITCKASQDINKYIAWYQHKPGKGPSLLIHYTSTLQPGIPSRFSGSGSGRDYSFSISNLEPEDIATYYCLQYANLLTFGGGTKLEIKR
# B2: humanized anti-GPVI Fab VL1/VH2 (Fab, V domains shown)
# VH: B1 VH with K5Q, G42S, K43R, N60Q, Q86T
# VL: B1 VL with L15V, K18R, I58V, E79Q
# B3: humanized anti-GPVI Fab VL2/VH2 (Fab, V domains shown)
# VH: B1 VH with K5Q, G42S, K43R, N60Q, Q86T
# VL: B1 VL with L15V, K18R, I58V, E79Q, N93H
# B4: humanized anti-GPVI Fab VL1/VH1 (Fab, V domains shown)
# VH: B1 VH with K5Q, G42S, K43R, N60Q, N73T, Q86T
# VL: B1 VL with L15V, K18R, I58V, E79Q
# B5: humanized anti-GPVI Fab VL3/VH4 (Fab, V domains shown)
# VH: B1 VH with K5Q, G31Y, G42S, K43R, N60Q, Q86T
# VL: B1 VL with L15V, K18R, I58V, E79Q, N93L
# B6: humanized anti-GPVI Fab VL1/VH4 (Fab, V domains shown)
# VH: B1 VH with K5Q, G31Y, G42S, K43R, N60Q, Q86T
# VL: B1 VL with L15V, K18R, I58V, E79Q
# B7: humanized anti-GPVI Fab VL1/VH5 (Fab, V domains shown)
# VH: B1 VH with K5Q, G42S, K43R, N60Q, Q86T, Y103E
# VL: B1 VL with L15V, K18R, I58V, E79Q
# B8: humanized anti-GPVI Fab VL1/VH3 (Fab, V domains shown)
# VH: B1 VH with Q1E, K5L, Q16G, N60Q, Q86R, Q106L
# VL: B1 VL with L15V, K18R, I58V, E79Q
# B9: humanized anti-GPVI Fab VL3/VH2 (Fab, V domains shown)
# VH: B1 VH with K5Q, G42S, K43R, N60Q, Q86T
# VL: B1 VL with L15V, K18R, I58V, E79Q, N93L
# Biological target: T1, human GPVI on the platelet surface
# Test: cell-based or functional assay
"IC50 for inhibition of collagen induced platelet aggregation (human platelet rich plasma), Test 1 [mg/L]","IC50 for inhibition of collagen induced platelet aggregation (human platelet rich plasma), Test 2 [mg/L]","IC50 for inhibition of collagen induced platelet aggregation (human platelet rich plasma), Test 3 [mg/L]",Binder
1.6,6.4,1.3,B1
2.3,2,1.1,B2
1.4,2.4,2.3,B3
1.5,2.3,–,B4
1,2.3,2,B5
1.6,1.8,1.2,B6
1.9,2.3,1.2,B7
1.7,1.5,1.5,B8
1.9,0.9,2.1,B9

# Biological target: T2, hGPVI-hFc fusion protein (human)
# T2 construct: also called GPVI-Fc fusion protein; human GPVI-Fc
# Test: competition assay, GPVI-Fc pre-incubated with Fab, binding to collagen-coated plates (DELFIA), Test 1
row,IC50 [mg/L],Binder
1,0.49,B1

# Biological target: T2, hGPVI-hFc fusion protein
# Test: competition assay, GPVI-Fc pre-incubated with Fab, binding to collagen-coated plates (DELFIA), Test 2
row,IC50 [mg/L],Binder
1,0.56,B1

# Biological target: T2, hGPVI-hFc fusion protein
# Test: competition assay, GPVI-Fc pre-incubated with Fab, binding to collagen-coated plates (DELFIA), Test 3
row,IC50 [mg/L],Binder
1,0.99,B1

# — patent EP2402371A1 (SANOFI, dated 2012)
